Data as given in PMC10397247.

Legend:
[1] = target: T1, 4H496-bA; experiment: two-hybrid library CCNG1;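 further: natural log of median RNA to DNA barcode read ratio; higher means stronger binding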
T1 chain: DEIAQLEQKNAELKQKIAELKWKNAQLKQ

[2] = target: T2, 4H2619-bA; experiment: two-hybrid library CCNG1;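 further: natural log of median RNA to DNA barcode read ratio; higher means stronger binding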
T2 chain: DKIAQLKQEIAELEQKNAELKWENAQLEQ

[3] = target: T3, 4H342-bA; experiment: two-hybrid library CCNG1;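 further: natural log of median RNA to DNA barcode read ratio; higher means stronger binding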
T3 chain: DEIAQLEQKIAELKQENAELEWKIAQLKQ

[4] = target: T4, 4H3070-bA; experiment: two-hybrid library CCNG1; conditions: mean of both orientations;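 further: natural log of median RNA to DNA barcode read ratio; higher means stronger binding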
T4 chain: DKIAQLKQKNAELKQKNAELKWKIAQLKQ

[5] = target: T5, 4H3632-bA; experiment: two-hybrid library CCNG1
T5 chain: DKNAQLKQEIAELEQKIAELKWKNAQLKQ

[6] = target: T6, 4H2691-bA; experiment: two-hybrid library CCNG1
T6 chain: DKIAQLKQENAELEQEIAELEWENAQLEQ

[7] = target: T7, 4H145-bA; experiment: two-hybrid library CCNG1; conditions: mean of both orientations
T7 chain: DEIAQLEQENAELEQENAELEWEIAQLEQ

[8] = target: T8, P12-AA; experiment: two-hybrid library CCmax; conditions: mean of both orientations
T8 chain: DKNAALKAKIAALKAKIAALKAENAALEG

[9] = target: T9, P8-AA; experiment: two-hybrid library CCmax; conditions: mean of both orientations
T9 chain: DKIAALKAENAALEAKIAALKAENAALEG

[10] = target: T10, P2-AA-12HAA-I; experiment: two-hybrid library CCmax; conditions: mean of both orientations
T10 chain: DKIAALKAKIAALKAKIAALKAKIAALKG

[11] = target: T11, P2-AA-12HAA-D; experiment: two-hybrid library CCmax; conditions: mean of both orientations
T11 chain: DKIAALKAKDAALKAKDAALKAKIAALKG

[12] = target: T12, zCON9_D; experiment: two-hybrid library CCmax; conditions: mean of both orientations
T12 chain: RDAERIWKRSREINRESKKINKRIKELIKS

[13] = target: T13, P2-AA-12HGe-A; experiment: two-hybrid library CCmax; conditions: mean of both orientations
T13 chain: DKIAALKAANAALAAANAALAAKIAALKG

[14] = target: T14, P2-AA-12HAA-H; experiment: two-hybrid library CCmax; conditions: mean of both orientations
T14 chain: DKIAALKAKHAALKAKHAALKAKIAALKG

[15] = target: T15, P2-AA-1HAA-R; experiment: two-hybrid library CCmax; conditions: mean of both orientations
T15 chain: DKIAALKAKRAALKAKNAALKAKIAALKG

[16] = target: T16, P2-AA-1HGe-W; experiment: two-hybrid library CCmax; conditions: mean of both orientations
T16 chain: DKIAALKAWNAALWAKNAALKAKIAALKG

[17] = target: T17, P9-AA; experiment: two-hybrid library CCmax; conditions: mean of both orientations
T17 chain: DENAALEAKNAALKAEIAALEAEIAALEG

[18] = target: T18, P2-AA-12HGe-W; experiment: two-hybrid library CCmax; conditions: mean of both orientations
T18 chain: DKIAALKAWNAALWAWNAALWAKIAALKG

[19] = target: T19, P2-AA; experiment: two-hybrid library CCmax; conditions: mean of both orientations
T19 chain: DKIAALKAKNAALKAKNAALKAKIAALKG

[20] = target: T20, P2-AA-1HAA-V; experiment: two-hybrid library CCmax; conditions: mean of both orientations
T20 chain: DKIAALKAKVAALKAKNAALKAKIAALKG

[21] = target: T21, P2-AA-12HGe-M; experiment: two-hybrid library CCmax; conditions: mean of both orientations
T21 chain: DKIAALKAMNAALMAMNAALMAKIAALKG

[22] = target: T22, zCON9_A; experiment: two-hybrid library CCmax
T22 chain: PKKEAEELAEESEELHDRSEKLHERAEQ

[23] = target: T23, P2-AA-1HAA-E; experiment: two-hybrid library CCmax; conditions: mean of both orientations
T23 chain: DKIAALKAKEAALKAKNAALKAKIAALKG

[24] = target: T24, P2-AA-12HGe-H; experiment: two-hybrid library CCmax; conditions: mean of both orientations
T24 chain: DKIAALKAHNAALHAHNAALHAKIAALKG

[25] = target: T25, P2-AA-12HAA-V; experiment: two-hybrid library CCmax; conditions: mean of both orientations
T25 chain: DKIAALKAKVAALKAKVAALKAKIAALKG

[26] = target: T26, P2-AA-1HAA-D; experiment: two-hybrid library CCmax; conditions: mean of both orientations
T26 chain: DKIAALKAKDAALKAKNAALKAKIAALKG

[27] = target: T27, zCON9_B; experiment: two-hybrid library CCmax; conditions: mean of both orientations
T27 chain: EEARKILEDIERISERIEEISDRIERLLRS

[28] = target: T28, P2-AA-12HGe-R; experiment: two-hybrid library CCmax; conditions: mean of both orientations
T28 chain: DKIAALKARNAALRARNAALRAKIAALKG

[29] = target: T29, P2-AA-12HGe-Q; experiment: two-hybrid library CCmax; conditions: mean of both orientations
T29 chain: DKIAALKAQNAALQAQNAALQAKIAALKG

[30] = target: T30, P3-AA; experiment: two-hybrid library CCmax; conditions: mean of both orientations
T30 chain: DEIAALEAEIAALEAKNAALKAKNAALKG

[31] = target: T31, P2-AA-12HAA-K; experiment: two-hybrid library CCmax; conditions: mean of both orientations
T31 chain: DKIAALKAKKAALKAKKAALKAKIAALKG

[32] = target: T32, P2-AA-1HGe-Q; experiment: two-hybrid library CCmax; conditions: mean of both orientations
T32 chain: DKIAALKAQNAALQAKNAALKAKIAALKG

[33] = target: T33, P2-AA-12HGe-T; experiment: two-hybrid library CCmax; conditions: mean of both orientations
T33 chain: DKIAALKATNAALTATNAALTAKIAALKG

[34] = target: T34, P2-AA-1HGe-T; experiment: two-hybrid library CCmax; conditions: mean of both orientations
T34 chain: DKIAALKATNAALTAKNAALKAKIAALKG

[35] = target: T35, P2-AA-12HAA-L; experiment: two-hybrid library CCmax; conditions: mean of both orientations
T35 chain: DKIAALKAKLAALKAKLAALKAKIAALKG

[36] = target: T36, P2-AA-12HAA-S; experiment: two-hybrid library CCmax; conditions: mean of both orientations
T36 chain: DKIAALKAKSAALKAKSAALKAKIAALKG

[37] = target: T37, P2-AA-12HAA-E; experiment: two-hybrid library CCmax; conditions: mean of both orientations
T37 chain: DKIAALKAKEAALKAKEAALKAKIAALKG

[38] = target: T38, P2-AA-12HAA-T; experiment: two-hybrid library CCmax; conditions: mean of both orientations
T38 chain: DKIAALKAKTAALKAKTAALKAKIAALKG

[39] = target: T39, P2-AA-1HGe-M; experiment: two-hybrid library CCmax; conditions: mean of both orientations
T39 chain: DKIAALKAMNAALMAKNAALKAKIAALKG

[40] = target: T40, P10-AA; experiment: two-hybrid library CCmax; conditions: mean of both orientations
T40 chain: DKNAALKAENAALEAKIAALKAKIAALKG

[41] = target: T41, P2-AA-12HAA-R; experiment: two-hybrid library CCmax; conditions: mean of both orientations
T41 chain: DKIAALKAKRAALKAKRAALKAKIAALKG

[42] = target: T42, P4-AA; experiment: two-hybrid library CCmax; conditions: mean of both orientations
T42 chain: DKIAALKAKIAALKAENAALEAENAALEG

[43] = target: T43, P2-AA-1HAA-I; experiment: two-hybrid library CCmax; conditions: mean of both orientations
T43 chain: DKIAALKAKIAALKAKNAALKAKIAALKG

[44] = target: T44, P2-AA-1HGe-D; experiment: two-hybrid library CCmax; conditions: mean of both orientations
T44 chain: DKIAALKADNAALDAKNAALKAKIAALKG

[45] = target: T45, P2-AA-12HGe-D; experiment: two-hybrid library CCmax; conditions: mean of both orientations
T45 chain: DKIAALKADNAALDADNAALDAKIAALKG

[46] = target: T46, P2-AA-1HAA-S; experiment: two-hybrid library CCmax; conditions: mean of both orientations
T46 chain: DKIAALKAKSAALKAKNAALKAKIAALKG

[47] = target: T47, P1-AA; experiment: two-hybrid library CCmax
T47 chain: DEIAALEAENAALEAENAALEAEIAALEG

[48] = target: T48, P7-AA; experiment: two-hybrid library CCmax; conditions: mean of both orientations
T48 chain: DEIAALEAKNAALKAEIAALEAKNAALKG

[49] = target: T49, P2-AA-1HAA-H; experiment: two-hybrid library CCmax; conditions: mean of both orientations
T49 chain: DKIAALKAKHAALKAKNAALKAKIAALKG

[50] = target: T50, P2-AA-12HAA-Y; experiment: two-hybrid library CCmax; conditions: mean of both orientations
T50 chain: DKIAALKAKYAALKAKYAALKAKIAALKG

[51] = target: T51, P2-AA-1HGe-A; experiment: two-hybrid library CCmax; conditions: mean of both orientations
T51 chain: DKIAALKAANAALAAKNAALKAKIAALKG

[52] = target: T52, P2-AA-1HAA-T; experiment: two-hybrid library CCmax; conditions: mean of both orientations
T52 chain: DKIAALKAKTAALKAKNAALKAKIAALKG

[53] = target: T53, P11-AA; experiment: two-hybrid library CCmax; conditions: mean of both orientations
T53 chain: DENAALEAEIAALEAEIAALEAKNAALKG

[54] = target: T54, P2-AA-12HGe-E; experiment: two-hybrid library CCmax; conditions: mean of both orientations
T54 chain: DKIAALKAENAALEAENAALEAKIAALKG

[55] = target: T55, P2-AA-12HGe-S; experiment: two-hybrid library CCmax; conditions: mean of both orientations
T55 chain: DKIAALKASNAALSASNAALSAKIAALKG

B1: 4H145-bA (peptide)
chain: DEIAQLEQENAELEQENAELEWEIAQLEQ
interaction score [1]: -1.06 | interaction score [2]: -0.672 | interaction score [3]: -1.12 | interaction score [4]: 2.5 | interaction score [5]: -1.06 | interaction score [6]: -0.624 | interaction score [7]: -0.795

B2: P1-AA (peptide)
chain: DEIAALEAENAALEAENAALEAEIAALEG
interaction score [8]: -0.335 | interaction score [9]: -1.57 | interaction score [10]: 1.38 | interaction score [11]: -1.91 | interaction score [12]: -2.59 | interaction score [13]: 1.83 | interaction score [14]: 1.67 | interaction score [15]: 1.51 | interaction score [16]: 2.42 | interaction score [17]: -1.49 | interaction score [18]: 1.66 | interaction score [19]: 2.11 | interaction score [20]: 1.86 | interaction score [21]: 1.8 | interaction score [22]: -1.8 | interaction score [23]: 1.78 | interaction score [24]: 2.06 | interaction score [25]: 1.26 | interaction score [26]: 1.71 | interaction score [27]: -1.67 | interaction score [28]: 2.37 | interaction score [29]: 1.62 | interaction score [30]: -0.804 | interaction score [31]: 1.32 | interaction score [32]: 1.97 | interaction score [33]: 1.19 | interaction score [34]: 2.12 | interaction score [35]: 0.342 | interaction score [36]: 1.74 | interaction score [37]: -0.168 | interaction score [38]: 1.34 | interaction score [39]: 1.87 | interaction score [40]: -0.307 | interaction score [41]: 1.86 | interaction score [42]: -1.71 | interaction score [43]: 2.01 | interaction score [44]: 1.9 | interaction score [45]: -1.71 | interaction score [46]: 1.81 | interaction score [47]: -1.9 | interaction score [48]: -1.7 | interaction score [49]: 2.1 | interaction score [50]: 1.57 | interaction score [51]: 2.03 | interaction score [52]: 1.69 | interaction score [53]: -1.27 | interaction score [54]: 0.914 | interaction score [55]: 0.568
